Results reported in patent publication US20050164361A1 (published 2005).
Where no end group is shown, it is not given here.

What was measured:
[1] = molecular target: the molecule itself; experiment: fibril formation kinetics (self-assembly), FIG. 5A
[2] = molecular target: the molecule itself; experiment: self-assembly into a β-sheet bilayer, FIG. 8
[3] = molecular target: the molecule itself; experiment: fibril formation kinetics (self-assembly), FIG. 5B

B1: Aβ(10-21) (amino acid residues 10-21 of SEQ ID NO: 1) (peptide)
peptide: YEVHHQKLVFFA
modifications: not fully specified
notes: Segment of β-amyloid that assembles with itself into fibrils; Many copies stand in the assembly
[1]
  binding result: binds

B2: Aβ(16-22) (amino acid residues 16-22 of SEQ ID NO: 1), CH3CO-KLVFFAE-NH2 (peptide)
peptide: Ac-KLVFFAE-NH2
modifications: also: self-assembles into β-sheets, nanotubes
notes: Assembles with itself into β-sheets, a rectangular bilayer, helical ribbons and nanotubes
[2]
  binding result: binds

B3: Aβ(10-21)H13Q (SEQ ID NO: 3) (peptide)
peptide: YEVQHQKLVFFA
notes: Aβ(10-21) with a modified amino acid residue 13 (H13Q)
[3]
  binding result: binds
